Source: US20140050727A1 (MOCHIDA PHARMACEUTICAL, published 2014)
Each block holds one binder with its values, some of them ahead of it.

Columns and labels:
human CD14 = biological target: T1, human CD14 (human, UniProt P08571 20-375, limits assumed); assay: cell-based or functional assay
T1 sequence (looked up): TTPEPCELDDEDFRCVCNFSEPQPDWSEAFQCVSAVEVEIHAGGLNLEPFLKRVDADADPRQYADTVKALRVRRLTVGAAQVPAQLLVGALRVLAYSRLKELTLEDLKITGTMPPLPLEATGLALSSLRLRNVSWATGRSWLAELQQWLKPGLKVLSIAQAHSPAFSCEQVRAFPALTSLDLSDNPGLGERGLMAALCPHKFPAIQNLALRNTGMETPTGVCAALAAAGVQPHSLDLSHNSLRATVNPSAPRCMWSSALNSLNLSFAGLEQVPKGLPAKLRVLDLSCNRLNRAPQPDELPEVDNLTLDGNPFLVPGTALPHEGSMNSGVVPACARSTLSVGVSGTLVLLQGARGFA

[1] = biological target: T2, Elastase, Human Neutrophil (human, UniProt P08246 30-247, limits assumed); assay: cell-based or functional assay
T2 sequence (looked up): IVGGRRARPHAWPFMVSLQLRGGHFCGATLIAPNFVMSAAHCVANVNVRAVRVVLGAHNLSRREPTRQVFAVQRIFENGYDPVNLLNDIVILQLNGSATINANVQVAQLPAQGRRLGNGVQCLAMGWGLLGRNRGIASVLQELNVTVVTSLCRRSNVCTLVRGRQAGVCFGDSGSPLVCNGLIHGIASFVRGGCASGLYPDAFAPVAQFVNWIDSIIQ

[2] = biological target: T3, amino acid-substituted soluble human CD14 P294H (human, UniProt P08571 20-345); assay: competitive EIA on immobilized 356(CHO) with HRP-labeled F1024 antibody
T3 construct: mature; Expressed in COS-1, purified on a 3C10 column
T3 sequence (looked up): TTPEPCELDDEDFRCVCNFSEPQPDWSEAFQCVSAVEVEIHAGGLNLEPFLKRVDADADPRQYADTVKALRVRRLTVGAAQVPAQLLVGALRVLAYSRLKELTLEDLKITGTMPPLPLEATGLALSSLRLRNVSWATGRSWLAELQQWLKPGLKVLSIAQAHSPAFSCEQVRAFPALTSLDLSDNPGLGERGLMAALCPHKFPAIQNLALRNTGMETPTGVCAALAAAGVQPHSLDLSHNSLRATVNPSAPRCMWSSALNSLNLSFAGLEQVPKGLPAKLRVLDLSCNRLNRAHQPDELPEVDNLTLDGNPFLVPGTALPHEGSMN
Procedure: (§1) A competitive experiment was conducted by the following procedure to confirm the reactivity of each soluble human amino acid-substituted CD14 with the F1024 antibody. […] After allowing to stand overnight at 4° C. and washing 3 times with the PBS containing 0.05% Tween 20, 200 μL/well of PBS⁻ containing 2% StabilGuard (SurModics, Inc.) was added to the well, and the solution was incubated at 37° C. for 30 minutes and stored at 4° C. In the meanwhile, amino acid-substituted soluble human CD14 that had been purified in Example 6-3) was diluted to 2 to 0.02 μg/mL with PBS⁻ containing 0.1% BSA. HRP-labeled F1024 antibody was diluted to 2 μg/mL with PBS⁻ containing 0.1% BSA, and the diluted HRP-labeled F1024 antibody was mixed with an equal amount of the human amino acid-substituted CD14 (25 μL+25 μL). Next, the solution was discarded from the wells of the plate having the soluble CD14 immobilized, and 50 μL/well of a mixed solution of amino acid-substituted CD14 and HRP-labeled F1024 was added. After the incubation at 37° C. for 2 hours, the plate was washed 5 times with PBS⁻ containing 0.05% Tween 20, and 50 μL/well of TMB solution (BioFX) was added to the well as the chromogenic substrate. The reaction was allowed to proceed at room temperature for 5 minutes, the reaction was terminated by adding 50 μL/well of 1M hydrochloric acid solution. Absorbance at 450 nm was measured with a plate spectrophotometer.

[3] = biological target: T4, amino acid-substituted soluble human CD14 Q295A (human, UniProt P08571 20-345); assay: as above
T4 construct: mature; Expressed in COS-1, purified on a 3C10 column
T4 sequence (looked up): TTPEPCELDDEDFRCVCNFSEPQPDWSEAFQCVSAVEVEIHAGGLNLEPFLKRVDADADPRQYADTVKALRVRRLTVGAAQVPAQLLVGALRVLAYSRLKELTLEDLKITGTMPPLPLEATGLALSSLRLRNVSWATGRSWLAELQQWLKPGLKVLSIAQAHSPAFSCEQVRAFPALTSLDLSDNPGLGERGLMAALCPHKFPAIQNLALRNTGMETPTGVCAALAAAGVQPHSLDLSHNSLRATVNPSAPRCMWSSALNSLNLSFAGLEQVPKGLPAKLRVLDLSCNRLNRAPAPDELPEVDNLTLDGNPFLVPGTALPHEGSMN
Procedure: as §1

[4] = biological target: T5, amino acid-substituted soluble human CD14 P294/296A (human, UniProt P08571 20-345); assay: as above
T5 construct: mature; Expressed in COS-1, purified on a 3C10 column
T5 sequence (looked up): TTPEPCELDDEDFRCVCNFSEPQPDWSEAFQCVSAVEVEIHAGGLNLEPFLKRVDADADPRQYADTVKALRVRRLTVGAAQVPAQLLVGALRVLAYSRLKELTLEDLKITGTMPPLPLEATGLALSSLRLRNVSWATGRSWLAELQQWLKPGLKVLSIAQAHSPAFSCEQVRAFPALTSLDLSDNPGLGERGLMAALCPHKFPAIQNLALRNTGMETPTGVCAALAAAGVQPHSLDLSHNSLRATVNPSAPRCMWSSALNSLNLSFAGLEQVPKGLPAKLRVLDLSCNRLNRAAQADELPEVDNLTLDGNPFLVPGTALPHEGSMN
Procedure: as §1

50% inhibitory concentration (elastase inhibitory activity) [1]: 22.5 µg/mL
B3: F1024S-SLPI(D1D2) (antibody)
heavy: QIQLVQSGPELKKPGESVKISCKASGYTFTDYAMNWVKQAPGNGLKWMGWINTQTGKPTYADDFKQRFVFSLETSASTAYLQINNLNIEDTATYFCTRSTFYYSSYIYGWYFDFWGPGTMVTVSSASTKGPSVFPLAPCSRSTSESTAALGCLVKDYFPEPVTVSWNSGALTSGVHTFPAVLQSSGLYSLSSVVTVPSSSLGTKTYTCNVDHKPSNTKVDKRVESKYGPPGPSGPAPEFLGGPSVFLFPPKPKDTLMISRTPEVTCVVVDVSQEDPEVQFNWYVDGVEVHNAKTKPREEQFNSTYRVVSVLTVLHQDWLNGKEYKCKVSNKGLPSSIEKTISKAKGQPREPQVYTLPPSQEEMTKNQVSLTCLVKGFYPSDIAVEWESNGQPENNYKTTPPVLDSDGSFFLYSRLTVDKSRWQEGNVFSCSVMHEALHNHYTQKSLSLSLGKGSGKSFKAGVCPPKKSAQCLRYKKPECQSDWQCPGKKRCCPDTCGIKCLDPVDTPNPTRRKPGKCPVTYGQCLMLNPPNFCEMDGQCKRDLKCCMGMCGKSCVSPVKA
light: DIVMTQSPTSISISVGERVTMNCKASQNVGSNVDWYQQKTGQSPKLLIYKASNRYTGVPDRFTGSGSGTDFTFTISNMQAVDLAVYYCMQSNTNPPWTFGGGTKLELKRTVAAPSVFIFPPSDEQLKSGTASVVCLLNNFYPREAKVQWKVDNALQSGNSQESVTEQDSKDSTYSLSSTLTLSKADYEKHKVYACEVTHQGLSSPVTKSFNRGEC

50% inhibitory concentration (elastase inhibitory activity) [1]: 26.9 µg/mL
B4: F1024S-SLPI(D2) (antibody)
heavy: QIQLVQSGPELKKPGESVKISCKASGYTFTDYAMNWVKQAPGNGLKWMGWINTQTGKPTYADDFKQRFVFSLETSASTAYLQINNLNIEDTATYFCTRSTFYYSSYIYGWYFDFWGPGTMVTVSSASTKGPSVFPLAPCSRSTSESTAALGCLVKDYFPEPVTVSWNSGALTSGVHTFPAVLQSSGLYSLSSVVTVPSSSLGTKTYTCNVDHKPSNTKVDKRVESKYGPPGPSGPAPEFLGGPSVFLFPPKPKDTLMISRTPEVTCVVVDVSQEDPEVQFNWYVDGVEVHNAKTKPREEQFNSTYRVVSVLTVLHQDWLNGKEYKCKVSNKGLPSSIEKTISKAKGQPREPQVYTLPPSQEEMTKNQVSLTCLVKGFYPSDIAVEWESNGQPENNYKTTPPVLDSDGSFFLYSRLTVDKSRWQEGNVFSCSVMHEALHNHYTQKSLSLSLGKGSRRKPGKCPVTYGQCLMLNPPNFCEMDGQCKRDLKCCMGMCGKSCVSPVKA
light: DIVMTQSPTSISISVGERVTMNCKASQNVGSNVDWYQQKTGQSPKLLIYKASNRYTGVPDRFTGSGSGTDFTFTISNMQAVDLAVYYCMQSNTNPPWTFGGGTKLELKRTVAAPSVFIFPPSDEQLKSGTASVVCLLNNFYPREAKVQWKVDNALQSGNSQESVTEQDSKDSTYSLSSTLTLSKADYEKHKVYACEVTHQGLSSPVTKSFNRGEC

Further lines, the binder ahead of its results:

B1: F1024S-D2(3) (antibody)
heavy: QIQLVQSGPELKKPGESVKISCKASGYTFTDYAMNWVKQAPGNGLKWMGWINTQTGKPTYADDFKQRFVFSLETSASTAYLQINNLNIEDTATYFCTRSTFYYSSYIYGWYFDFWGPGTMVTVSSASTKGPSVFPLAPCSRSTSESTAALGCLVKDYFPEPVTVSWNSGALTSGVHTFPAVLQSSGLYSLSSVVTVPSSSLGTKTYTCNVDHKPSNTKVDKRVESKYGPPGPSGPAPEFLGGPSVFLFPPKPKDTLMISRTPEVTCVVVDVSQEDPEVQFNWYVDGVEVHNAKTKPREEQFNSTYRVVSVLTVLHQDWLNGKEYKCKVSNKGLPSSIEKTISKAKGQPREPQVYTLPPSQEEMTKNQVSLTCLVKGFYPSDIAVEWESNGQPENNYKTTPPVLDSDGSFFLYSRLTVDKSRWQEGNVFSCSVMHEALHNHYTQKSLSLSLGKGSTVAACNLPIVSGPCRAFIKLWAFDAVKGKCVLFPYGGCQGNGNKFDSEKECREYCGVPGDGDEELLRFSN
light: DIVMTQSPTSISISVGERVTMNCKASQNVGSNVDWYQQKTGQSPKLLIYKASNRYTGVPDRFTGSGSGTDFTFTISNMQAVDLAVYYCMQSNTNPPWTFGGGTKLELKRTVAAPSVFIFPPSDEQLKSGTASVVCLLNNFYPREAKVQWKVDNALQSGNSQESVTEQDSKDSTYSLSSTLTLSKADYEKHKVYACEVTHQGLSSPVTKSFNRGEC
IC50 for inhibition of LPS-induced E-Selectin expression in HUVEC (human CD14): 0.43 µg/mL
IC50 for inhibition of LPS-induced IL-6 production in HUVEC (human CD14): 0.38 µg/mL
IC50 for inhibition of LPS-induced TNF-α production in human peripheral blood mononuclear cells (human CD14): 0.58 µg/mL
IC50 for inhibition of LPS-induced procoagulant activity (PCA) in human peripheral blood mononuclear cells (human CD14): 20.9 µg/mL
50% inhibitory concentration (elastase inhibitory activity) [1]: 8.9 µg/mL

B2: modified F1024S-D2(R11S/R15T/Q19K/Y46D) (antibody)
heavy: QIQLVQSGPELKKPGESVKISCKASGYTFTDYAMNWVKQAPGNGLKWMGWINTQTGKPTYADDFKQRFVFSLETSASTAYLQINNLNIEDTATYFCTRSTFYYSSYIYGWYFDFWGPGTMVTVSSASTKGPSVFPLAPCSRSTSESTAALGCLVKDYFPEPVTVSWNSGALTSGVHTFPAVLQSSGLYSLSSVVTVPSSSLGTKTYTCNVDHKPSNTKVDKRVESKYGPPGPSGPAPEFLGGPSVFLFPPKPKDTLMISRTPEVTCVVVDVSQEDPEVQFNWYVDGVEVHNAKTKPREEQFNSTYRVVSVLTVLHQDWLNGKEYKCKVSNKGLPSSIEKTISKAKGQPREPQVYTLPPSQEEMTKNQVSLTCLVKGFYPSDIAVEWESNGQPENNYKTTPPVLDSDGSFFLYSRLTVDKSRWQEGNVFSCSVMHEALHNHYTQKSLSLSLGKGSTVAACNLPIVSGPCTAFIKLWAFDAVKGKCVLFPYGGCQGNGNKFDSEKECREYCGVPGDGDEELLRFSN
light: DIVMTQSPTSISISVGERVTMNCKASQNVGSNVDWYQQKTGQSPKLLIYKASNRYTGVPDRFTGSGSGTDFTFTISNMQAVDLAVYYCMQSNTNPPWTFGGGTKLELKRTVAAPSVFIFPPSDEQLKSGTASVVCLLNNFYPREAKVQWKVDNALQSGNSQESVTEQDSKDSTYSLSSTLTLSKADYEKHKVYACEVTHQGLSSPVTKSFNRGEC
50% inhibitory concentration (elastase inhibitory activity) [1]: 4.43 µg/mL

B5: F1024 antibody (antibody, V domains shown)
VH: QIQLVQSGPELKKPGESVKISCKASGYTFTDYAMNWVKQAPGNGLKWMGWINTQTGKPTYADDFKQRFVFSLETSASTAYLQINNLNIEDTATYFCTRSTFYYSSYIYGWYFDFWGPGTSVTVSS
VL: DIVMTQSPTSISISVGERVTMNCKASQNVGSNVDWYQQKTGQSPKLLIYKASNRYTGVPDRFTGSGSGTDFTFTISNMQAVDLAVYYCMQSNTNPPWTFGGGTKLELKRT
notes: also called antibody F1024; F1024-1-3 rat antibody
binding result [2]: no binding (tested: 2 to 0.02 µg/mL)
binding result [3]: no binding (tested: 2 to 0.02 µg/mL)
binding result [4]: no binding (tested: 2 to 0.02 µg/mL)
